{"source": "paper doi:10.1101/2020.10.28.359810", "about": "(bioRxiv, 2020)", "molecules": {"B1": {"name": "receptor-interaction domain from NCOA3 (domain or fragment, UniProt Q9Y6Q9 621-821, looked up)", "chain": "LLQLLTCSSDDRGHSSLTNSPLDSSCKESSVSVTSPSGVSSSTSGGVSSTSNMHGSLLQEKHRILHKLLQNGNSPAEVAKITAEATGKDTSSITSCGDGNVVKQEQLSPKKKENNALLRYLLDRDDPSDALSKELQPQVEGVDNKMSQCTSSTIPSSSQEKDPKIKTETSEEGSGDLDNLDAILGDLTSSDFYNNSISSNG"}}, "key": {"[1]": {"molecular_target": "T1, TLX ligand-binding domain (UniProt Q9Y466 155-385)", "T1 sequence (Q9Y466 155-385)": "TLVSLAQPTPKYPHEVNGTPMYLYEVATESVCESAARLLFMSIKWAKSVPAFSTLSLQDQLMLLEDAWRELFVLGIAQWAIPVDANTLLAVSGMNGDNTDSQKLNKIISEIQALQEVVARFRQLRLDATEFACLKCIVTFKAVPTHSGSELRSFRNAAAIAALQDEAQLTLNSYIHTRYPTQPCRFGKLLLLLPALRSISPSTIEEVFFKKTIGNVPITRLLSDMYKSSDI", "test": "BLI"}, "[2]": {"molecular_target": "T1, TLX ligand-binding domain", "test": "AlphaScreen or HTRF"}}, "data": [{"molecule": "atrophin corepressor peptide", "values": [{"measurement": "Kd", "setting": "[1]", "result": 14.2, "unit": "µM"}]}, {"molecule": "untagged atrophin peptide", "values": [{"measurement": "EC50", "setting": "[2]", "result": 1.3, "unit": "µM"}]}, {"molecule": "B1", "values": [{"measurement": "EC50", "setting": "[2]", "result": 3.3, "unit": "µM"}]}]}
